From patent US20260049138A1 (Chugai, published 2026)

molecular target: T1, CD3ε homodimer protein (human, UniProt P07766 23-126, limits assumed); test: SPR Biacore T200, CD3ε homodimer on chip;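 also: Light-chain single-residue variant antibodies injected over amine-coupled CD3ε homodimer on a CM4 chip at 25 °C, bound amount divided by that of the GLS3000-containing antibody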
T1 construct: also called CD3 (CD3ε)
T1 sequence (P07766 23-126 limits assumed): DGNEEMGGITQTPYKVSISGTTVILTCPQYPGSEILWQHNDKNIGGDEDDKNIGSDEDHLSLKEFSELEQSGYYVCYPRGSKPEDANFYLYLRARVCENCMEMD
Protocol: Each one-amino acid altered form constructed, expressed, and purified in the paragraph (6-2) was evaluated using Biacore T200 (GE Healthcare Japan Corp.). An appropriate amount of CD3ε homodimer protein was immobilized onto Sensor chip CM4 (GE Healthcare Japan Corp.) by the amine coupling method. Then, the antibody having an appropriate concentration was injected thereto as an analyte and allowed to interact with the CD3ε homodimer protein on the sensor chip. Then, the sensor chip was regenerated by the injection of 10 mmol/L glycine-HCl (pH 1.5). The assay was conducted at 25° C., and HBS-EP+ (GE Healthcare Japan Corp.) was used as a running buffer. […] Each parameter was calculated using Biacore T200 Evaluation Software (GE Healthcare Japan Corp.).
Specifically, when the amount of the GLS3000-containing antibody bound was defined as X and the amount of the L chain one-amino acid altered form bound was defined as Y, a value of Z (ratio of amounts bound)=Y/X was used.

Row | ratio of amount bound vs unaltered GLS3000 | Binder
1 | 0.67 | GLS3000 R29G one-arm antibody (antibody, human IgG1, kappa, L234A L235A, N297A, name in Kabat numbering) heavy: QVQLVESGGGVVQPGRSLRLSCAASGFTFSNAWMHWVRQAPGKGLEWVAQIKAKSNNYATYYAESVKGRFTISRDDSKNSLYLQMNSLKTEDTAVYYCRYVHYGAYYGVDAWGQGTTVTVSSASTKGPSVFPLAPSSKSTSGGTAALGCLVKDYFPEPVTVSWNSGALTSGVHTFPAVLQSSGLYSLSSVVTVPSSSLGTQTYICNVNHKPSNTKVDKKVEPKSCDKTHTCPPCPAPEAAGGPSVFLFPPKPKDTLMISRTPEVTCVVVDVSHEDPEVKFNWYVDGVEVHNAKTKPREEQYASTYRVVSVLTVLHQDWLNGKEYKCKVSNKALPAPIEKTISKAKGQPREPQVYTLPPSRCELTKNQVSLSCAVKGFYPSDIAVEWESNGQPENNYKTTPPVLDSDGSFFLVSKLTVDKSRWQQGNVFSCSVMHEALHNHYTQKSLSLSPDYKDDDDK EPKSSDKTHTCPPCPAPELLGGPSVFLFPPKPKDTLMISRTPEVTCVVVDVSHEDPEVKFNWYVDGVEVHNAKTKPREEQYNSTYRVVSVLTVLHQDWLNGKEYKCKVSNKALPAPIEKTISKAKGQPREPQVCTLPPSRDELTKNQVSLWCLVKGFYPSDIAVEWESNGQPENNYKTTPPVLDSDGSFFLYSKLTVDKSRWQQGNVFSCSVMHEALHNRYTQKSLSLSP light: DIVMTQSPLSLPVTPGEPASISCRSSQSLVHSNGNTYLHWYQQKPGQAPRLLIYKVSNRFSGVPDRFSGSGSGTDFTLKISRVEAEDVGVYYCGQGTQVPYTFGQGTKLEIKRTVAAPSVFIFPPSDEQLKSGTASVVCLLNNFYPREAKVQWKVDNALQSGNSQESVTEQDSKDSTYSLSSTLTLSKADYEKHKVYACEVTHQGLSSPVTKSFNRGEC
2 | 0.41 | GLS3000 R29D one-arm antibody (antibody, human IgG1, kappa, L234A L235A, N297A, name in Kabat numbering) heavy: QVQLVESGGGVVQPGRSLRLSCAASGFTFSNAWMHWVRQAPGKGLEWVAQIKAKSNNYATYYAESVKGRFTISRDDSKNSLYLQMNSLKTEDTAVYYCRYVHYGAYYGVDAWGQGTTVTVSSASTKGPSVFPLAPSSKSTSGGTAALGCLVKDYFPEPVTVSWNSGALTSGVHTFPAVLQSSGLYSLSSVVTVPSSSLGTQTYICNVNHKPSNTKVDKKVEPKSCDKTHTCPPCPAPEAAGGPSVFLFPPKPKDTLMISRTPEVTCVVVDVSHEDPEVKFNWYVDGVEVHNAKTKPREEQYASTYRVVSVLTVLHQDWLNGKEYKCKVSNKALPAPIEKTISKAKGQPREPQVYTLPPSRCELTKNQVSLSCAVKGFYPSDIAVEWESNGQPENNYKTTPPVLDSDGSFFLVSKLTVDKSRWQQGNVFSCSVMHEALHNHYTQKSLSLSPDYKDDDDK EPKSSDKTHTCPPCPAPELLGGPSVFLFPPKPKDTLMISRTPEVTCVVVDVSHEDPEVKFNWYVDGVEVHNAKTKPREEQYNSTYRVVSVLTVLHQDWLNGKEYKCKVSNKALPAPIEKTISKAKGQPREPQVCTLPPSRDELTKNQVSLWCLVKGFYPSDIAVEWESNGQPENNYKTTPPVLDSDGSFFLYSKLTVDKSRWQQGNVFSCSVMHEALHNRYTQKSLSLSP light: DIVMTQSPLSLPVTPGEPASISCRSSQSLVHSNDNTYLHWYQQKPGQAPRLLIYKVSNRFSGVPDRFSGSGSGTDFTLKISRVEAEDVGVYYCGQGTQVPYTFGQGTKLEIKRTVAAPSVFIFPPSDEQLKSGTASVVCLLNNFYPREAKVQWKVDNALQSGNSQESVTEQDSKDSTYSLSSTLTLSKADYEKHKVYACEVTHQGLSSPVTKSFNRGEC

Second part, the binder before the results:

Row | Binder | ratio of amount bound vs unaltered GLS3000
3 | GLS3000 R24S one-arm antibody (antibody, human IgG1, kappa, L234A L235A, N297A, name in Kabat numbering) heavy: QVQLVESGGGVVQPGRSLRLSCAASGFTFSNAWMHWVRQAPGKGLEWVAQIKAKSNNYATYYAESVKGRFTISRDDSKNSLYLQMNSLKTEDTAVYYCRYVHYGAYYGVDAWGQGTTVTVSSASTKGPSVFPLAPSSKSTSGGTAALGCLVKDYFPEPVTVSWNSGALTSGVHTFPAVLQSSGLYSLSSVVTVPSSSLGTQTYICNVNHKPSNTKVDKKVEPKSCDKTHTCPPCPAPEAAGGPSVFLFPPKPKDTLMISRTPEVTCVVVDVSHEDPEVKFNWYVDGVEVHNAKTKPREEQYASTYRVVSVLTVLHQDWLNGKEYKCKVSNKALPAPIEKTISKAKGQPREPQVYTLPPSRCELTKNQVSLSCAVKGFYPSDIAVEWESNGQPENNYKTTPPVLDSDGSFFLVSKLTVDKSRWQQGNVFSCSVMHEALHNHYTQKSLSLSPDYKDDDDK EPKSSDKTHTCPPCPAPELLGGPSVFLFPPKPKDTLMISRTPEVTCVVVDVSHEDPEVKFNWYVDGVEVHNAKTKPREEQYNSTYRVVSVLTVLHQDWLNGKEYKCKVSNKALPAPIEKTISKAKGQPREPQVCTLPPSRDELTKNQVSLWCLVKGFYPSDIAVEWESNGQPENNYKTTPPVLDSDGSFFLYSKLTVDKSRWQQGNVFSCSVMHEALHNRYTQKSLSLSP light: DIVMTQSPLSLPVTPGEPASISCSSSQSLVHSNRNTYLHWYQQKPGQAPRLLIYKVSNRFSGVPDRFSGSGSGTDFTLKISRVEAEDVGVYYCGQGTQVPYTFGQGTKLEIKRTVAAPSVFIFPPSDEQLKSGTASVVCLLNNFYPREAKVQWKVDNALQSGNSQESVTEQDSKDSTYSLSSTLTLSKADYEKHKVYACEVTHQGLSSPVTKSFNRGEC | 0.89
4 | GLS3000 R24Y one-arm antibody (antibody, human IgG1, kappa, L234A L235A, N297A, name in Kabat numbering) heavy: QVQLVESGGGVVQPGRSLRLSCAASGFTFSNAWMHWVRQAPGKGLEWVAQIKAKSNNYATYYAESVKGRFTISRDDSKNSLYLQMNSLKTEDTAVYYCRYVHYGAYYGVDAWGQGTTVTVSSASTKGPSVFPLAPSSKSTSGGTAALGCLVKDYFPEPVTVSWNSGALTSGVHTFPAVLQSSGLYSLSSVVTVPSSSLGTQTYICNVNHKPSNTKVDKKVEPKSCDKTHTCPPCPAPEAAGGPSVFLFPPKPKDTLMISRTPEVTCVVVDVSHEDPEVKFNWYVDGVEVHNAKTKPREEQYASTYRVVSVLTVLHQDWLNGKEYKCKVSNKALPAPIEKTISKAKGQPREPQVYTLPPSRCELTKNQVSLSCAVKGFYPSDIAVEWESNGQPENNYKTTPPVLDSDGSFFLVSKLTVDKSRWQQGNVFSCSVMHEALHNHYTQKSLSLSPDYKDDDDK EPKSSDKTHTCPPCPAPELLGGPSVFLFPPKPKDTLMISRTPEVTCVVVDVSHEDPEVKFNWYVDGVEVHNAKTKPREEQYNSTYRVVSVLTVLHQDWLNGKEYKCKVSNKALPAPIEKTISKAKGQPREPQVCTLPPSRDELTKNQVSLWCLVKGFYPSDIAVEWESNGQPENNYKTTPPVLDSDGSFFLYSKLTVDKSRWQQGNVFSCSVMHEALHNRYTQKSLSLSP light: DIVMTQSPLSLPVTPGEPASISCYSSQSLVHSNRNTYLHWYQQKPGQAPRLLIYKVSNRFSGVPDRFSGSGSGTDFTLKISRVEAEDVGVYYCGQGTQVPYTFGQGTKLEIKRTVAAPSVFIFPPSDEQLKSGTASVVCLLNNFYPREAKVQWKVDNALQSGNSQESVTEQDSKDSTYSLSSTLTLSKADYEKHKVYACEVTHQGLSSPVTKSFNRGEC | 0.87
5 | GLS3000 R24T one-arm antibody (antibody, human IgG1, kappa, L234A L235A, N297A, name in Kabat numbering) heavy: QVQLVESGGGVVQPGRSLRLSCAASGFTFSNAWMHWVRQAPGKGLEWVAQIKAKSNNYATYYAESVKGRFTISRDDSKNSLYLQMNSLKTEDTAVYYCRYVHYGAYYGVDAWGQGTTVTVSSASTKGPSVFPLAPSSKSTSGGTAALGCLVKDYFPEPVTVSWNSGALTSGVHTFPAVLQSSGLYSLSSVVTVPSSSLGTQTYICNVNHKPSNTKVDKKVEPKSCDKTHTCPPCPAPEAAGGPSVFLFPPKPKDTLMISRTPEVTCVVVDVSHEDPEVKFNWYVDGVEVHNAKTKPREEQYASTYRVVSVLTVLHQDWLNGKEYKCKVSNKALPAPIEKTISKAKGQPREPQVYTLPPSRCELTKNQVSLSCAVKGFYPSDIAVEWESNGQPENNYKTTPPVLDSDGSFFLVSKLTVDKSRWQQGNVFSCSVMHEALHNHYTQKSLSLSPDYKDDDDK EPKSSDKTHTCPPCPAPELLGGPSVFLFPPKPKDTLMISRTPEVTCVVVDVSHEDPEVKFNWYVDGVEVHNAKTKPREEQYNSTYRVVSVLTVLHQDWLNGKEYKCKVSNKALPAPIEKTISKAKGQPREPQVCTLPPSRDELTKNQVSLWCLVKGFYPSDIAVEWESNGQPENNYKTTPPVLDSDGSFFLYSKLTVDKSRWQQGNVFSCSVMHEALHNRYTQKSLSLSP light: DIVMTQSPLSLPVTPGEPASISCTSSQSLVHSNRNTYLHWYQQKPGQAPRLLIYKVSNRFSGVPDRFSGSGSGTDFTLKISRVEAEDVGVYYCGQGTQVPYTFGQGTKLEIKRTVAAPSVFIFPPSDEQLKSGTASVVCLLNNFYPREAKVQWKVDNALQSGNSQESVTEQDSKDSTYSLSSTLTLSKADYEKHKVYACEVTHQGLSSPVTKSFNRGEC | 0.88
6 | GLS3000 R29A one-arm antibody (antibody, human IgG1, kappa, L234A L235A, N297A, name in Kabat numbering) heavy: QVQLVESGGGVVQPGRSLRLSCAASGFTFSNAWMHWVRQAPGKGLEWVAQIKAKSNNYATYYAESVKGRFTISRDDSKNSLYLQMNSLKTEDTAVYYCRYVHYGAYYGVDAWGQGTTVTVSSASTKGPSVFPLAPSSKSTSGGTAALGCLVKDYFPEPVTVSWNSGALTSGVHTFPAVLQSSGLYSLSSVVTVPSSSLGTQTYICNVNHKPSNTKVDKKVEPKSCDKTHTCPPCPAPEAAGGPSVFLFPPKPKDTLMISRTPEVTCVVVDVSHEDPEVKFNWYVDGVEVHNAKTKPREEQYASTYRVVSVLTVLHQDWLNGKEYKCKVSNKALPAPIEKTISKAKGQPREPQVYTLPPSRCELTKNQVSLSCAVKGFYPSDIAVEWESNGQPENNYKTTPPVLDSDGSFFLVSKLTVDKSRWQQGNVFSCSVMHEALHNHYTQKSLSLSPDYKDDDDK EPKSSDKTHTCPPCPAPELLGGPSVFLFPPKPKDTLMISRTPEVTCVVVDVSHEDPEVKFNWYVDGVEVHNAKTKPREEQYNSTYRVVSVLTVLHQDWLNGKEYKCKVSNKALPAPIEKTISKAKGQPREPQVCTLPPSRDELTKNQVSLWCLVKGFYPSDIAVEWESNGQPENNYKTTPPVLDSDGSFFLYSKLTVDKSRWQQGNVFSCSVMHEALHNRYTQKSLSLSP light: DIVMTQSPLSLPVTPGEPASISCRSSQSLVHSNANTYLHWYQQKPGQAPRLLIYKVSNRFSGVPDRFSGSGSGTDFTLKISRVEAEDVGVYYCGQGTQVPYTFGQGTKLEIKRTVAAPSVFIFPPSDEQLKSGTASVVCLLNNFYPREAKVQWKVDNALQSGNSQESVTEQDSKDSTYSLSSTLTLSKADYEKHKVYACEVTHQGLSSPVTKSFNRGEC | 0.63
